Reference: patent US20100278838A1, “EPHA2 MONOCLONAL ANTIBODIES AND METHODS OF USE THEREOF” (MEDIMMUNE, LLC, priority 2002, published 2010)
“Also recorded” adds a separate entry of the source.

B1: Eph099B-233.152: EphA2 monoclonal antibody; hybridoma ATCC PTA-5194; VL SEQ ID NO:17, VH SEQ ID NO:21 (antibody, listed as Homo sapiens, V domains shown)
VH: EVKLVESGGGLVQPGGSLSLSCAASGFTFTDYSMNWVRQPPGKALEWLGFIRNKANDYTTEYSASVKGRFTISRDNSQSILYLQMNALRAEDSATYYCVRYPRYHAMDSWGQGTSVTVSS
VL: DIVLTQSPATLSVTPGDSVNLSCRASQSISNNLHWYQQKSHESPRLLIKYVFQSISGIPSRFSGSGSGTDFTLSINSVETEDFGMYFCQQSNSWPLTFGAGTKLELK
B2: EA2: EphA2 agonistic monoclonal antibody; ATCC deposit no. PTA-4380; co-pending application Ser. No. 10/436,783; VL SEQ ID NO:33, VH SEQ ID NO:37 (antibody, listed as Homo Sapiens, V domains shown)
VH: DVKLVESGGGLVKPGGSLKLSCAASGFTFSSYTMSWVRQTPEKRLEWVATISSGGTYTYYPDSVKGRFTISRDNAKNTLYLQMSSLKSEDTAMYYCTREAIFTYWGQGTLVTVSA
VL: DIKMTQSPSSMYASLGERVTITCKASQDINNYLSWFQQKPGKSPKTLIYRANRLVDGVPSRFSGSGSGQDYSLTISSLEYEDMGIYYCLKYDEFPYTFGGGTKLEIK
B3: Eph099B-208.261: EphA2 monoclonal antibody; hybridoma ATCC PTA-4573; VL SEQ ID NO:1, VH SEQ ID NO:5 (antibody, listed as Homo sapiens, V domains shown)
VH: QVQLQQPGAELVKPGASVKLSCKASGYTFTSYWMHWVKQRPGQGLEWIGMIHPNSGSTNYNEKFKSKATLTVDKSSSTAYMRLSSLTSEDSAVYYCARGGNMVGGGYWGQGTTLTVSS
VL: QIVLTQSPALMSASPGEKVTMTCSASSSVSYMYWYQQKPRSSPKPWIYLTTNLASGVPARFSGSGSGTSYSLTISSMEAEDAATYYCQQWSSNPFTFGSGTKLEIR

What was measured:
[1] = system: MDA-MB-231 breast cancer cells implanted subcutaneously; assay: Tumor growth and survival in vivo, MDA-MB-231 implanted subcutaneously; set-up: species or system athymic mice; conditions: for Growth of MDA-MB-231 cells implanted subcutaneously: 6mg/kg intraperitoneally twice a week for 3 weeks, versus PBS or 1A7
Procedure: MDA-MB-231 cells were implanted subcutaneously into athymic mice. After the tumors had grown to an average volume of 100 mm^3, mice were administered 6 mg/ml Eph099B-233.152 or PBS control intraperitoneally twice a week for 3 weeks. (A) Tumor Growth. Tumor growth was assessed and expressed as a ratio of the tumor volume divided by initial tumor volume (100 mm^3). Control mice are indicated by circles and Eph099B-233.152-treated mice are indicated by squares. Arrows indicate time of Eph099B-233.152 or PBS administration. (B) Survival. Tumor growth was allowed to proceed until tumor volume reached 1000 mm^3. Survival of the mice was assessed by scoring the percent of mice living each day post treatment. Control mice are indicated by grey and Eph099B-233.152-treated mice are indicated by black.
(§1) FIGS. 7A-7D: The EphA2 antibodies, EA2, Eph099B-208.261, and Eph099B-233.152, inhibit tumor cell growth in vivo. MDA-MB-231 breast cancer cells were implanted (A) orthotopically or (B) subcutaneously into athymic mice. (C) A549 lung cancer cells were implanted subcutaneously into athymic mice. After the tumors had grown to an average volume of 100 mm^3, mice were administered 6 mg/kg of the indicated antibody or negative control (PBS or 1A7 antibody) intraperitoneally twice a week for 3 weeks. Tumor growth was assessed and expressed as a ratio of the tumor volume divided by initial tumor volume (100 mm^3). (D) MDA-MB-231 breast cancer cells were implanted subcutaneously into athymic mice. After the tumors had grown to an average volume of 100 mm^3, mice were administered 6 mg/kg of the indicated antibody or negative control intraperitoneally twice a week for 3 weeks. Total tumor volume was determined after sacrifice. Negative control is black, EA2 is white, Eph099B-208.261 is dark grey, and Eph099B-233.152 is light grey.
The ability of the antibodies of the invention to inhibit tumor cancer growth in vivo was assayed. Eph099B-233.152 can inhibit tumor cell growth in vivo and extend survival time of tumor-bearing mice. Briefly, 5×10^6 MDA-MB-231 breast cancer cells were implanted subcutaneously into athymic mice. After the tumors had grown to an average volume of 100mm^3, mice were administered 6mg/ml Eph099B-233.152 or PBS control intraperitoneally twice a week for 3 weeks. Tumor growth was assessed and expressed as a ratio of the tumor volume divided by initial tumor volume (100 mm^3). […] Tumor growth was allowed to proceed until tumor volume reached 1000 mm^3. Survival of the mice was assessed by scoring the percent of mice living each day post treatment. […] By day 36, all of the mice in the control group had died in contrast with only 70% of the mice admixture Eph099B-233.152.
5×10^6MDA-MB-231 breast cancer cells were implanted orthotopically or subcutaneously and 5×10^6 A549 lung cancer cells were implanted subcutaneously into athymic mice. After the tumors had grown to an average volume of 100 mm^3, mice were administered 6mg/kg of an EphA2 agonistic antibody or negative control (PBS or 1A7 antibody) intraperitoneally twice a week for 3 weeks. Animals were generally sacrificed at least two weeks after the last treatment or when tumors exceeded 2000 mm^3. Tumor growth was assessed and expressed either as a ratio of the tumor volume divided by initial tumor volume (100 mm^3) or as total tumor volume. Growth of MDA-MB-231 cells implanted orthotopically was inhibited by EA2 (FIG. 7A). Growth of MDA-MB-231 cells implanted subcutaneously was inhibited by EA2, Eph099B-208.261, and Eph099B-233.152 (FIG. 7B, D). Growth of A549 cells implanted subcutaneously was inhibited by EA2, or Eph099B-208.261 (FIG. 7C).

EphA2-Fc = molecular target: T1, EphA2-Fc (Homo sapiens, UniProt P29317); assay: Competitive ELISA: inhibition of labeled EA2 binding to EphA2-Fc; conditions: unlabeled antibody, increasing concentrations; FIG. 1
T1 construct: consisted of the extracellular domain of human EphA2 linked to human immunoglobulin
T1 sequence (P29317 24-537 limits assumed): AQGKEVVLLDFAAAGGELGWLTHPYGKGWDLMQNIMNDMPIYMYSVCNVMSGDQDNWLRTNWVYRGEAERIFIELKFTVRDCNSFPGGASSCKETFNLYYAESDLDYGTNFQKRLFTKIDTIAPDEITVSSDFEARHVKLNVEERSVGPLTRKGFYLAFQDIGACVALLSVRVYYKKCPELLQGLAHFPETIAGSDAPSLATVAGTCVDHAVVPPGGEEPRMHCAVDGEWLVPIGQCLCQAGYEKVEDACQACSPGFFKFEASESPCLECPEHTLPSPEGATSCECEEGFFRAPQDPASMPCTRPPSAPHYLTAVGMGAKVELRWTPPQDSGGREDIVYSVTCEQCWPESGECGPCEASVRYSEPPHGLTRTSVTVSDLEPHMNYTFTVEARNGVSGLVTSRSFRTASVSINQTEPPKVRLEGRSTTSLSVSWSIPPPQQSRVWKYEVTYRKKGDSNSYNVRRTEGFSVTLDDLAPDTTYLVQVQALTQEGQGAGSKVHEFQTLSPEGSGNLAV
Procedure: The ability of labeled EA2 monoclonal antibody to bind EphA2-Fc was assayed by competitive ELISA in presence of either unlabeled monoclonal antibodies EA2 or Eph099B-208.261. Ratios of unlabeled to labeled antibody used in the assay are indicated on the x-axis. EA2 is indicated by diamonds and Eph099B-208.261 is indicated by squares.
Monoclonal antibodies against the extracellular domain of EphA2 were generated using the fusion protein EphA2-Fc. This fusion protein consisted of the extracellular domain of human EphA2 linked to human immunoglobulin to facilitate secretion of the fusion protein.
Supernatants from bulk culture hybridomas were screened for immunoreactivity against EphA2 (Table 6, column 4) using standard molecular biological techniques (e.g., ELISA immunoassay). Supernatants were further screened for the ability to inhibit an EphA2 monoclonal antibody (EA2; ATCC deposit no. PTA-4380; see co-pending U.S. patent application Ser. No. 10/436,783, entitled “EphA2 Agonistic Monoclonal Antibodies and Methods of Use Thereof' filed May 12, 2003) from binding to EphA2. Briefly, the ability of labeled EA2 to bind EphA2-Fc was assayed by competitive ELISA in presence of either unlabeled EA2 or unlabeled Eph099B-208.261 (FIG. 1). […] Additionally, many of the other antibodies could inhibit EA2 binding to EphA2 as well (Table 6, column 3).

[2] = system: A549 lung cancer cells implanted subcutaneously; assay: Tumor growth in vivo, A549 implanted subcutaneously; set-up: species or system athymic mice; conditions: 6mg/kg intraperitoneally twice a week for 3 weeks; versus PBS or 1A7
Procedure: as §1
5×10^6MDA-MB-231 breast cancer cells were implanted orthotopically or subcutaneously and 5×10^6 A549 lung cancer cells were implanted subcutaneously into athymic mice. […] Tumor growth was assessed and expressed either as a ratio of the tumor volume divided by initial tumor volume (100 mm^3) or as total tumor volume. […]

Molecule	Growth of MDA-MB-231 cells implanted subcutaneously [1]	Mice that had died by day 36 ([1]; 6mg/ml intraperitoneally twice a week for 3 weeks, all control mice had died)	Survival of the mice (percent of mice living each day post treatment) ([1]; 6mg/ml intraperitoneally twice a week for 3 weeks, versus PBS)	Tumor growth (tumor volume divided by initial tumor volume) ([1]; 6mg/ml intraperitoneally twice a week for 3 weeks, versus PBS, after 30 days)	Competition with labeled EA2 for binding to EphA2-Fc (EphA2-Fc)	Growth of A549 cells implanted subcutaneously [2]
B1	inhibited	70%	A greater percentage of mice survived at each time point examined	smaller tumors than mice administered PBS; also recorded: inhibits tumor cell growth in vivo		
B2	inhibited				could decrease the amount of labeled EA2 binding to EphA2-Fc	inhibited
B3	inhibited				could decrease the amount of labeled EA2 binding to EphA2-Fc; also recorded: can compete with EA2 for binding to EphA2	inhibited
